We go through 3 substances from paper PMC8168016.

Assay [1] concerns the target AncSR1-LBD L180F/A181Y/M185K (dimerization-interface mutant with three historical substitutions). In words: native MS.
The target of assay [2] is AncSR1-LBD 184E (dimerization-interface mutant with a non-historical charge-repulsion mutation). In words: native MS.
The target in assay [3] is AncSR1-LBD fused to the CTE of AncSR2-LBD. The experiment in a line: SEC-MALS. For orientation: SEC sorts molecules by how far they enter the pores of the column.

In assay [1], “AncSR1-LBD L180F/A181Y/M185K (dimerization-interface mutant with three historical substitutions) (domain or fragment)” showed a fold increase of Kd against AncSR1-LBD of over 20 fold.

In turn, “AncSR1-LBD 184E (dimerization-interface mutant with a non-historical charge-repulsion mutation) (domain or fragment)” gave a fold increase of Kd against AncSR1-LBD in assay [2] of over 20 fold.

Turning to “AncSR1-LBD fused to the CTE of AncSR2-LBD (domain or fragment)”, the stoichiometry N (usually a count of units in the complex or per binding partner) in assay [3] was determined as 2.
